Test results from patent US11819540B2, “Methods for treating and preventing neutrophil-derived net toxicity and thrombosis” (CHILDREN'S MEDICAL CENTER CORPORATION, priority 2011, dated 2023).
“Also recorded” adds a separate entry of the source.

Test system: TRALI in BALB/c mice
Test: Two-event (LPS + anti-H-2Kd mAb) TRALI model
Type: in vivo, mouse
Protocol: In order to determine the effect of anti-NET compounds as a treatment for TRALI, a mouse model of the 2-hit TRALI model was utilized. BALB/c male mice (8-10 week-old) were primed with an intraperitoneal injection of lipopolysaccharide (LPS) (0.1 or 0.5 mg/kg) 24 hours prior to challenge with anti-H2K^dmAb (clone 34-1-2s1, 1 mg/kg) or isotype control injected retro-orbitally. Before each injection mice were shortly anesthetized by inhalation of isoflurane. To measure the effect of DNaseI treatment on mice experiencing TRALI, mice received intranasal DNaseI (50 μg/mouse, 1 μg/ul) or 50 μl of the buffer-vehicle 10 minutes prior to the antibody injection.
The model was adapted from Looney et al. (2009).^20 Male BALB/c mice (8-10 week old) were primed with an i.p. injection of LPS (0.1 or 0.5 mg/kg, as indicated in the text) 24 hours prior to challenge with anti-H-2K^d mAb (clone 34-1-2s, 1 mg/kg) or isotype control injected retro-orbitally. In experiments involving DNase 1 treatment, mice that were injected with both LPS and the anti-H-2K^d mAb received i.n. DNase 1 (PULMOZYME®, Genentech, 50 μg/mouse, 1 μg/ul) 10 minutes before or 90 minutes after antibody injection. Control TRALI mice were injected with 50 μl of the DNase 1 vehicle-buffer in DNase 1 experiments. Blood collection, lung harvesting and arterial oxygen saturation measurements were all performed 2 hours after antibody injection. No event of TRALI-related death was recorded under these conditions in any of the treated mice.
Rectal temperatures were measured as an indicator of shock-like condition 2 hours post anti-H-2K^d infusion using a rectal temperature probe (MOUSEOX PLUS® system, STARR Life Sciences) connected to a POWERLAB™ data acquisition system (ADInstruments, USA).
Mouse peripheral blood counts were measured from EDTA (ethylenediaminetetraacetic acid)-anti-coagulated blood with a HEMAVET™ 950 veterinary hematology analyzer (Drew Scientific). This blood counter uses two different currents to analyze the cells. A low voltage current determines the volume and the number of cells (Coulter Impedance principle) and a high voltage current that passes through the cells generates information on their internal structure such as nucleus, fluid, granules and vacuoles.
Mice were sacrificed and intubated with a 24-gauge cannula after their tracheas were surgically isolated. The lungs were flushed three times with 0.8 ml of sterile PBS. BAL fluids were centrifuged for 5 minutes at 800 g. Protein concentration was quantified in the supernatant using the bicinchoninic acid method.
Blood arterial oxygen saturation was recorded 2 hours after anti-H-2K^d antibody injection, using a small rodent oxymeter sensor (MOUSE^OX™, STARR Life Sciences) mounted on the collar of each tested mouse. The 2 hour endpoint was used as per the model published by Looney and colleagues in 2009.^20-22
Mouse lungs were fixed by intratracheal infusion of 1.5% formaldehyde/1.5% glutaraldehyde in sodium cacodylate buffer (pH 7.35), excised and bathed in the same solution for 2 hours at 4° C. The fixed lungs were sliced into 0.5 mm sections; the sections were washed extensively in distilled water, frozen on a liquid-helium cooled copper block, freeze-dried at −80° C., and coated with 2 nm of platinum at a 45° angle with rotation and 10 nm of carbon without rotation. Tissue was removed from the metal casting using bleach (Austin's A-1-5.25% sodium hypochlorite), washed and picked up on formvar-coated 200 mesh copper grids. Grids were photographed in a JEOL-1200 EX electron microscope at 100 kV.

[1] = intranasal DNaseI 50 μg/mouse 10 min prior to antibody

B1: rhDNase-1: recombinant human DNase-1 (Dornase alpha, Pulmozyme, Genentech) (protein, UniProt P24855 23-282, looked up)
Deoxyribonuclease-1: LKIAAFNIQTFGETKMSNATLVSYIVQILSRYDIALVQEVRDSHLTAVGKLLDNLNQDAPDTYHYVVSEPLGRNSYKERYLFVYRPDQVSAVDSYYYDDGCEPCGNDTFNREPAIVRFFSRFTEVREFAIVPLHAAPGDAVAEIDALYDVYLDVQEKWGLEDVMLMGDFNAGCSYVRPSQWSSIRLWTSPTFQWLIPDSADTTATPTHCAYDRIVVAGMLLRGAVVPDSALPFNFQAAYGLSDQLAQAISDHYPVEVMLK
2 hours after mAb infusion, DNase 1 as prophylaxis or treatment
  rectal temperature (shock-like condition): normal
DNase 1 i.n. 90 minutes after onset of TRALI (Post)
  arterial oxygen saturation (mean and minimum): improves arterial oxygen saturation; also recorded: succeeded in correcting the defect in blood oxygenation
DNase 1 i.n. pretreatment 10 min before antibody (Pre)
  arterial oxygen saturation (mean and minimum): succeeded in correcting the defect in blood oxygenation; also recorded: more stable arterial blood oxygen saturation and improved transient hypoxia
DNase 1 i.n. pretreatment vs vehicle buffer
  down spikes in blood arterial oxygen saturation (transient hypoxia): significantly attenuated
inhalation, before or after TRALI onset
  TRALI outcome: had a positive effect
Intranasal DNase 1 50 μg/mouse 10 min prior to antibody injection
  fibrous material (NETs) in alveoli, electron microscopy: absent; also recorded: prevents their alveolar accumulation; also recorded: no fibrous material could be detected
[1]
  TRALI-induced decrease of platelet counts: diminished
  TRALI-induced increase of BAL protein levels: diminished
